Source: patent publication US7115410 (ELAN PHARMACEUTICALS, dated 2006)
Square brackets hold non-standard residues; d marks the D form. Sta = CC(C)C[C@H](N)[C@@H](O)CC(=O)O

Legend:
[1] = biological target: T1, recombinant β-secretase from 293T cells, minor form starting at Thr-22 (human, UniProt P56817 22-501); assay: N-terminal sequencing of fractions from P10-P4′staD→V Sepharose, 293T cells
T1 construct: C-terminus not determined
Procedure: (§1) The cell pellet was resuspended by homogenizing for 30 seconds using a handheld homogenizer (0.5 ml/pellet of approximately 10^6 cells in extraction buffer consisting of 20 mM TRIS buffer, pH 7.5, 2 mM EDTA, 0.2% Triton X-100, plus protease inhibitors: 5 μg/ml E-64, 10 μg/ml pepstatin, 1 mM PMSF), centrifuged as maximum speed in a microfuge (40 minutes at 4 degrees C.). Pellets were suspended in original volume of extraction buffer, then stirred at 1 hour at 4 degrees C. with rotation, and centrifuted again in a microfuge at maximum speed for 40 minutes. The resulting supernatant was saved as the "extract." The extract was then diluted with 20 mm sodium acetate, pH 5.0, 2 mM EDTA and 0.2% Triton X-100 (SP buffer A), and 5 M NaCl was added to a final concentration of 60 mM NaCl. The pH of the solution was then adjusted to pH 5.0 with glacial acetic acid diluted 1:10 in water. Aliquots were saved ("SP load"). The SP load was passed through a 1 ml SP HiTrap column which was pre-washed with 5 ml SP buffer A, 5 ml SP buffer B (SP buffer A with 1 M NaCl) and 10 ml SP buffer A. An additional 2 ml of 5% SP buffer B was passed through the column to dissplace any remaining sample from the column. The pH of the SP flow-through was adjusted to pH 4.5 with 10× diluted acetic acid. This flow-through was then applied to a P10-P4'staD→V-Sepharose Affinity column, as described below. […]

[2] = biological target: T2, recombinant β-secretase from 293T cells, minor form starting at Met-63 (human, UniProt P56817 63-501); assay: N-terminal sequencing of fractions from P10-P4′(statine)D→V Sepharose, 293T cells
T2 construct: C-terminus not determined
Procedure: as §1

[3] = biological target: T3, recombinant β-secretase from Cos A2 cells, major form resulting from Gly-58 cleavage (human, UniProt P56817 58-501); assay: N-terminal sequencing of fractions from P10-P4′(statine)D→V Sepharose, Cos A2 cells
T3 construct: C-terminus not determined
Procedure: as §1

[4] = biological target: T4, recombinant β-secretase from 293T or Cos A2 cells transfected with the full-length construct, form with … (human, UniProt P56817 46-501); assay: affinity chromatography on P10-P4′staD→V Sepharose, extracts of transfected 293T and COS A2 cells, pH 4.5
T4 construct: also called Recombinant, 293T; Recombinant, CosA2
Procedure: as §1

[5] = biological target: T5, β-secretase 46-452 (human, UniProt P56817 46-452); assay: binding to P10-P4′staD→V affinity matrix
T5 construct: C-terminally truncated form lacking the transmembrane region

Measured: binding result

T2 sequence (P56817 63-501): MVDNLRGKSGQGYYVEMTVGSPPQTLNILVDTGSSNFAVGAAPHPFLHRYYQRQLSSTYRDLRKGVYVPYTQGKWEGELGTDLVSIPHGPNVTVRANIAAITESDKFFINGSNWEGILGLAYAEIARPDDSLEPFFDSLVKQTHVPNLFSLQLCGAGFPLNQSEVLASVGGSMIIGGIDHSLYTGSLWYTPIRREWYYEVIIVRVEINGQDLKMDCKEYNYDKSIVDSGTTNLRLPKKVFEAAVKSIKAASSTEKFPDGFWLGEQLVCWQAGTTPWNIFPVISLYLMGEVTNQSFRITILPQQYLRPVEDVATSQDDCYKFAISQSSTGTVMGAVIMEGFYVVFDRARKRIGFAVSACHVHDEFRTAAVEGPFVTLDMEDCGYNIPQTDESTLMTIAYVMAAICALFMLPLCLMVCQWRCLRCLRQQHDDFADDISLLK
T1 sequence (P56817 22-501): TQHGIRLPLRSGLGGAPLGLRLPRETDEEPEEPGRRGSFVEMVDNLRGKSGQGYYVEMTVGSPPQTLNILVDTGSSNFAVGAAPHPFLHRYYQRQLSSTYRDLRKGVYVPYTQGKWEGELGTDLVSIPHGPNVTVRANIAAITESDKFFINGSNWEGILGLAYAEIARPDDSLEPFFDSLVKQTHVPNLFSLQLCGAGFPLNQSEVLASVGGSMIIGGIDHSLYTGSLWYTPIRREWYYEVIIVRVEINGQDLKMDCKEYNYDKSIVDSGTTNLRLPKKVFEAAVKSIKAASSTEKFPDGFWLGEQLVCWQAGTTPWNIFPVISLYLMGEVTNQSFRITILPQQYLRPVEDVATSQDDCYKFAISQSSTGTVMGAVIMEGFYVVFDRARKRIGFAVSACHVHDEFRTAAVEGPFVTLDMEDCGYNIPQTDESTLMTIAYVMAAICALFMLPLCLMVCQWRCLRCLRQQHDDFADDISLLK
T4 sequence (P56817 46-501): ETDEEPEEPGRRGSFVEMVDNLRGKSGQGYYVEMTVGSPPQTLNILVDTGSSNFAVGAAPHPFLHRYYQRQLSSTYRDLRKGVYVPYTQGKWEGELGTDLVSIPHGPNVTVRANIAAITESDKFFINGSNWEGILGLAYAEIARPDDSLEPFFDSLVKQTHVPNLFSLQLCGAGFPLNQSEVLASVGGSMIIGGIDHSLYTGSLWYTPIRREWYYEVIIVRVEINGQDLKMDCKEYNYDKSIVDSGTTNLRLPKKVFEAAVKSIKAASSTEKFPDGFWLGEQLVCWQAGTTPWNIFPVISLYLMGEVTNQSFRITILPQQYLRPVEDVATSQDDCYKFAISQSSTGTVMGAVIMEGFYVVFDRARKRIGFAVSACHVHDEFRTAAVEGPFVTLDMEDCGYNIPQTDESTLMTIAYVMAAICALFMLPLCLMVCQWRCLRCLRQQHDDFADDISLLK
T5 sequence (P56817 46-452 limits assumed): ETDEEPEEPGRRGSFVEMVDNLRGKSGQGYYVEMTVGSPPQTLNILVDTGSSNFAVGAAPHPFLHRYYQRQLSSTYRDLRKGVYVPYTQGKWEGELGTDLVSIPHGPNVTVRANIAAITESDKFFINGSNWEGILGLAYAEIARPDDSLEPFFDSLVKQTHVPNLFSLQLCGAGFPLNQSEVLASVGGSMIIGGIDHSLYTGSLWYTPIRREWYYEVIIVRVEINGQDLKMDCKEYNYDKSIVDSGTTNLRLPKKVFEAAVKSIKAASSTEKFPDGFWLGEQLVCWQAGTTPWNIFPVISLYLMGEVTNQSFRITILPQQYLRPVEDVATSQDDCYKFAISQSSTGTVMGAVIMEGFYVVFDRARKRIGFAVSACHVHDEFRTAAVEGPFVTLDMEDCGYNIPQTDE
T3 sequence (P56817 58-501): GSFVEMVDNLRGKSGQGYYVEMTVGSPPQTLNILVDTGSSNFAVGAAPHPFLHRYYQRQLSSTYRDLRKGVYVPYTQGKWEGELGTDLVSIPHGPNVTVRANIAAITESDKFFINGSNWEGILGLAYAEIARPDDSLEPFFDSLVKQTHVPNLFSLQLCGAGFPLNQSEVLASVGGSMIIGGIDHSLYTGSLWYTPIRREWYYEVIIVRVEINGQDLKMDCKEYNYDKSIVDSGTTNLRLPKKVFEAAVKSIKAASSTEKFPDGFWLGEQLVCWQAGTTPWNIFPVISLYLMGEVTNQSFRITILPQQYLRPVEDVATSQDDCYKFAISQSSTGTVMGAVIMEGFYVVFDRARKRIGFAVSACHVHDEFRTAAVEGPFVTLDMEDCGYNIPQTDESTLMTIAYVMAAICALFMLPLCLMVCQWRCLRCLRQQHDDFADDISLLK

B1: P10-P4′staD→V (NH2-KTEEISEVN[sta]VAEF-COOH) (peptide)
peptide: H-KTEEISEVN[Sta]VAEF-OH
notes: Synthetic statine peptide derived from the APPsw cleavage site with D→V at P1′; also called P10-P4′(statine)D→V
binds: [1] | [2] | [3] | [4] | [5]
